The values that follow come from patent US20010039258A1, “Active agent transport systems” (Emisphere Technologies, Inc., priority 1990, published 2001).

For data set [1], the target named is T1, α-interferon (Homo sapiens, UniProt P01563).
T1 construct: purchased Schering Plough Corp
Briefly: Isothermal titration calorimetry of perturbant complexing with α-interferon. It is filed as binding. The note with it: pH 7.2, 25° C. How it is done:
Isothermal titration calorimetry of perturbant complexing with α-interferon was performed at 25° C. at two different pH's. The buffers used were 20 mM NaPhosphate for pH 7.2 and 20 mM NaAc for pH 3.0. α-interferon solution was dialyzed before the experiment to reach the appropriate pH. Dry perturbants were weighed and diluted in dialysate.
ITC was conducted on a MicroCal OMEGA titration calorimeter (MicroCal Inc.—Northampton, Mass.). Data points were collected every 2 seconds, without subsequent filtering. α-interferon solution placed in 1.3625 mL cell was titrated using a 250 μL syringe filled with concentrated perturbant solution. A certain amount of titrant was injected every 3-5 minutes for up to 55 injections.
A reference experiment to correct for the heat of mixing of two solutions, was performed identically except that the reaction cell was filled with buffer without active agent.
Analysis of the data was performed using the software developed at the Johns Hopkins University Biocalorimetry Center.
The titration at pH 7.2 included 53 injections of 2 μL of the perturbant of Example 30 (50 mg/mL=191.6 mM (MW 261)) and α-interferon (1.3 mg/mL=0.067 mM (MW 19400)).
The titration at pH 7.2 included two runs of […] each of 5 μL of perturbant (50 mg/mL=181 mM (FW 277)) and α-interferon (2.31 mg/mL=0.119 mM, (MW 19400)).
ITC was performed according to the method of Example 24 with 40 injections of 5 μL of the perturbant benzoyl para-amino phenylbutyric acid (7.5 mg/mL=24.59 mM, (FW 305)) and α-interferon (2.5 mg/mL=0.129 mM, (MW 19400)).
In general terms: In ITC the heat of successive injections is recorded.

The nature of data set [2]: Solubility of perturbant under the DSC buffer conditions. It is filed as physicochemical. As to conditions: room temperature; buffer conditions of the DSC (20 mM NaPhosphate pH 7.2). Here is the method: (§1) Perturbant binding DSC was conducted using 20 mM NaPhosphate buffer at pH 7.2. Dry perturbant was weighed out to make perturbant stock solutions. α-interferon stock was diluted in the buffer. α-interferon solution was not dialyzed prior to experiments for the purpose of having the same active concentration for the whole set.
DSC experiments were carried out according to the procedure of Example 19, with 0.5 mg/ml α-interferon mixed with (1) benzoyl para-amino phenylbutyric acid, (2) the perturbant of Example 22, or (3) the perturbant of Example 19.
Benzoyl para-amino phenylbutyric acid was poorly soluble under the buffer conditions. Maximum concentration at which the solution was still transparent at room temperature was ˜8 mg/mL. Therefore, the concentrations of the perturbant used were 2, 4, and 6 mg/mL. Results are illustrate in FIGS. 17 and 18. The dashed line in FIG. 17 represents the linear least squares, and the regression equation is at the top of FIG. 17.

Data set [3] deals with T1, α-interferon. Kind of data set: Isothermal titration calorimetry of perturbant complexing with α-interferon. As to conditions: pH 7; read-out: apparent dissociation constant. It counts as binding.
The nature of data set [4]: DSC of insulin with increasing guanidine hydrochloride. It is filed as physicochemical. Here is the method:
DSC was performed with […] insulin (0.83 mM assuming a molecular weight of 6,000) in 50 mM phosphate buffer, pH 7.5. Each subsequent thermogram was corrected by background subtraction of a 0.6M guanidine-phosphate buffer solution.
Insulin was freshly prepared as a concentrated stock solution in 50 mM phosphate buffer, pH 7.5, and an appropriate aliquot was diluted in buffer, filtered though a 2 micron PTFE filter, and degassed for at least 20 minutes. The reference cell contained degassed buffer.
Scanning calorimetry was performed using 5 mg 0.83 mM porcine insulin (MW 6,000) per mL in 50 mM phosphate buffer, pH 7.5. All thermograms were performed on a Microcal MC-2 scanning calorimeter equipped with the DA2 data acquisition system operated in the upscale mode at 1° C./min (up to 90° C.), and data points were collected at 20 second intervals. All scans were initiated at least 20 degrees below the observed transitions for the active agent. All thermograms were corrected for baseline subtraction and normalized for the concentration of macromolecule. According to the methods of the Johns Hopkins Biocalorimetry Center, See, for example, Ramsay et al. Biochemistry (1990) 29:8677-8693; Schon et al. Biochemistry (1989) 28:5019-5024 (1990) 29: 781-788. […]

Data set [5] can be described thus: DSC of insulin, effect of ionic strength. As to conditions: pH 7.5. It is filed as physicochemical. Here is the method: (§2) Scanning calorimetry was performed using 5 mg 0.83 mM porcine insulin (MW 6,000) per mL in 50 mM phosphate buffer, pH 7.5. All thermograms were performed on a Microcal MC-2 scanning calorimeter equipped with the DA2 data acquisition system operated in the upscale mode at 1° C./min (up to 90° C.), and data points were collected at 20 second intervals. All scans were initiated at least 20 degrees below the observed transitions for the active agent. All thermograms were corrected for baseline subtraction and normalized for the concentration of macromolecule. According to the methods of the Johns Hopkins Biocalorimetry Center, See, for example, Ramsay et al. Biochemistry (1990) 29:8677-8693; Schon et al. Biochemistry (1989) 28:5019-5024 (1990) 29: 781-788.
A sample containing 6 mg/mL insulin (0.83 mM in 50 mM phosphate buffer, pH 7.5, containing 0.25, 0.5, or 1.0M NaCl) was used. Thermograms were performed according to the procedure in Example 9 and were corrected by subtraction of a 0.5M NaCl-phosphate buffer blank as described above.
The effect of increasing ionic strength on structure was assessed in DSC experiments where individual solutions were prepared so as to contain NaCl at concentrations ranging from 0.25-3M.

Data set [6] addresses salmon calcitonin (salmon) (UniProt P01263). Kind of data set: ITC, 30 C, pH 4.5; perturbant in syringe, sCt in cell.
Data set [7] shares this target. Briefly: ITC, 30 C, pH 6.6 (text: pH 6.5); perturbant in syringe, sCt in cell.
Data set [8] has the same target. Briefly: ITC, 30 C, pH 4.5 (30 mM sodium acetate-30 mM NaCl); perturbant in syringe, sCt in cell.
The target is the same in data set [9]. Briefly: ITC, 30 C, pH 6.6 (text: pH 6.5, 30 mM Hepes-30 mM NaCl); perturbant in syringe, sCt in cell.
Data set [10] in a line: DSC of α-interferon, pH dependence. It is filed as physicochemical. Here is the method: as §2
α-interferon stock (9.1 mg/mL) was diluted with buffer to a concentration of 0.6 mg/mL. The sample was dialyzed overnight in buffer (volume ratio of α-interferon to buffer was 1:4000). Since there was no extinction coefficient provided, concentration of the sample used was determined by comparison of absorption spectra of the sample before and after dialysis. For each particular pH, the absorbance of the nondialyzed α-interferon of known concentration was measured at 280 nm. Then after dialysis, absorbance was read again to account for the protein loss, dilution, etc. Buffer conditions and α-interferon concentrations were:
pH 3.0: Buffer—20 mM NaAc. [IFN]=0.50 mg/mL;
pH 4.1: Buffer—20 mM NaAc. [IFN]=0.53 mg/mL;
pH 5.0: Buffer—20 mM NaAc. [IFN]=0.37 mg/mL;
pH 6.0: Buffer—20 mM Na Phosphate. [IFN]=0.37 mg/mL;
pH 7.2: Buffer—20 mM Na Phosphate. [IFN]=0.48 mg/mL.
DSC scans were performed according to the procedure of Example 9. Although clear, transparent solutions of α-interferon were obtained for every pH at room temperature, there were noticeable signs of precipitation at pH 5.0 and 6.0 after the temperature scans.

Data set [11] in a line: DSC of α-interferon in GuHCl. It is filed as physicochemical. How it is done:
GuHCl 5M stock solution was prepared using 20 mM sodium phosphate, pH 7.2 buffer. After dilution, the pH of the stock was checked and adjusted by concentrated HCl. To determine the concentration of final solution the refractive index referenced in Methods in Enzymology, Vol. 6, page 43 by Yasuhiko Nozaki was used.
α-interferon stock (9.1 mg/mL) was mixed with sufficient amounts of GuHCl to yield the concentrations of Table 1A below:
as §2
GuHCL/α-interferon samples were prepared according to the method of Example 4. DSC scans were performed according to the procedure of Example 9.

Data set [12] addresses T1, α-interferon. Briefly: Perturbant binding DSC with α-interferon. The note with it: perturbant 0 mg/ml; α-interferon 0.64 mg/ml; pH 7.2. Here is the method: as §1
DSC thermograms were generated with α-interferon at a concentration of 0.64 mg/ml and a perturbant (phenylsulfonyl-para-aminobenzoic acid purified to >98% (as determined by reverse phase chromatography prior to generation of the spectra)) at perturbant concentrations of 5, 10, 25 and 100 mg/ml. DSC was conducted on a DASM-4 differential scanning calorimeter interfaced to an IBM PC for automatic collection of the data. The scanning rate was 60° C./h.
The method of Example 19 was followed substituting α-interferon without perturbant. Results are illustrated in Table 9 below and FIG. 10. […]

The term Tm denotes the temperature at which the thermal transition is half complete.

T1 sequence (P01563 24-188): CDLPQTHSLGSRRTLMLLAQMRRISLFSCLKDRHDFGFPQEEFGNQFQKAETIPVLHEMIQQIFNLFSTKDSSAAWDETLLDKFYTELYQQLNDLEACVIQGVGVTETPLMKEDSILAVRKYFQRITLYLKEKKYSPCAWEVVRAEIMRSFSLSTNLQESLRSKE
Sequence of salmon calcitonin (salmon) (P01263 83-114 limits assumed): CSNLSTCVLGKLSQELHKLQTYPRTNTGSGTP

In the case of `O=C(O)CCCc1ccc(NC(=O)c2ccccc2)cc1` [benzoyl para-amino phenylbutyric acid], on α-interferon [1], the “log 10 Ka (1), Ka=association constant” value amounted to 3.343 and the “ΔH (1)” value worked out at 791.5726 cal/Mole perturbant. For the same compound, the “n (1), # of complexed perturbant molecules” value at α-interferon [1] (curve fitting, multiple independent sites) worked out at 23.7. Further, the “Maximum concentration at which the solution was still transparent” value in data set [2] was ≥ 8 mg/mL. Moreover, the Kd at α-interferon [3] amounted to 100 µM.
Insulin: porcine insulin (MW 6,000): the “Tm (Cp, max)” value in [4] (0.0 M GuHCl, 50 mM phosphate pH 7.5) is 78.3 °C; in data set [4] (0.5 M GuHCl, pH 7.5), 79.3 °C; in [4] (1.0 M GuHCl, pH 7.5), 77.5 °C; in data set [4] (2.0 M GuHCl, pH 7.5), 69.7 °C; in data set [4] (3.0 M GuHCl, pH 7.5) it was “no transition observed”; in data set [5] (0.0 M NaCl) it was 78.3 °C. The “Tm (Cp, max)” value in data set [5] (0.25 M NaCl), in [5] (0.5 M NaCl) and in data set [5] (1.0 M NaCl) was 80.7 °C throughout.
In the case of “thermal condensation product of glutamic acid, aspartic acid, tyrosine, and phenyl-alanine (Glu-Asp-Tye-Phe) fractionated through a 3000 molecular weight cut-off filter”, in [6], the N came to 0.8, the delta H was 0.553 kcal/mol and the delta S was 19.8 cal/mol ° K. For the same compound, in data set [7], the N was found to be 11.6, the delta H was 0.277 kcal/mol and the delta S was 38.3 cal/mol ° K. In addition, the Kd in [8] amounted to 129 µM. Moreover, the Kd in data set [9] worked out at 0.00699 µM.
Turning to α-Interferon, the midpoint of thermal melting (Tm) in data set [10] (pH 4.1) was 65.64 °C; in data set [10] (pH 5.0), 67.32 °C; in [10] (pH 6.0), 65.34 °C; in data set [10] (pH 7.2), 66.84 °C; in [11] ([GuHCl] 0.0 M), 67.12 °C; in data set [11] ([GuHCl] 0.5 M), 64.43 °C. Also, the Tm in data set [11] ([GuHCl] 1.0 M) amounted to 63.04 °C; in data set [11] ([GuHCl] 1.5 M) it was 60.11 °C; in data set [11] ([GuHCl] 2.0 M), 56.32 °C; in data set [11] ([GuHCl] 3.0 M), 45.90 °C. The ΔH in data set [10] (pH 4.1) was 60.47 kcal/mol; in data set [10] (pH 5.0) it was 69.782 kcal/mol; in [10] (pH 6.0) it was 45.58 kcal/mol; in [10] (pH 7.2) it was 732.717 kcal/mol; in data set [11] ([GuHCl] 0.0 M) it was 72.562 kcal/mol; in [11] ([GuHCl] 0.5 M) it was 50.827 kcal/mol. Also, the ΔH was found to be 41.705 kcal/mol in [11] ([GuHCl] 1.0 M), 29.52 kcal/mol in data set [11] ([GuHCl] 1.5 M), 24.98 kcal/mol in data set [11] ([GuHCl] 2.0 M) and 20.577 kcal/mol in data set [11] ([GuHCl] 3.0 M). Moreover, the “Tm of α-interferon” value with α-interferon [12] is 67.12 °C. Moreover, in the data set with α-interferon [12], the “ΔH of α-interferon” value turned out to be 72.562 kcal/mol.
